Data on one protein can be found in article PMC5096715, “Mapping the Complement Factor H-Related Protein 1 (CFHR1):C3b/C3d Interactions” (PLoS ONE, 2016).

The data set deals with the molecule itself. The data set is described as follows: SEC; preparative HiPrep 16/60 Sephacryl S200 column in DPBS pH 7.4. In general terms: In gel filtration, larger molecules generally elute earlier.

B1: complement factor H-related protein 1 (CFHR1), recombinant wild-type (natural protein, human, UniProt Q03591 19-330, looked up)
chain: EATFCDFPKINHGILYDEEKYKPFSQVPTGEVFYYSCEYNFVSPSKSFWTRITCTEEGWSPTPKCLRLCFFPFVENGHSESSGQTHLEGDTVQIICNTGYRLQNNENNISCVERGWSTPPKCRSTDTSCVNPPTVQNAHILSRQMSKYPSGERVRYECRSPYEMFGDEEVMCLNGNWTEPPQCKDSTGKCGPPPPIDNGDITSFPLSVYAPASSVEYQCQNLYQLEGNKRITCRNGQWSEPPKCLHPCVISREIMENYNIALRWTAKQKLYLRTGESAEFVCKRGYRLSSRSHTLRTTCWDGKLEYPTCAKR
notes: complement factor H-related protein 1, human, CFHR1*A variant, residues 19-330 of Q03591 (the mature protein, 5 SCR modules); no cleavage of the tag is told; Glycosylated; elutes as a mixture of dimers and monomers; also called wild-type CFHR1; CFHR1*A variant; source: Freestyle 293f cells, transiently transfected, secreted, purified (Histrap HP, Sephacryl S200 SEC); not shown: His6, N-terminal, …
As for B1, the stoichiometry N (in general, the number of molecules, sites or subunits per partner or assembly) is 2.
